Reference: US20260224721A1, “ANTI-CD70 ANTIBODY-DRUG CONJUGATES” (Ambrx, Inc., priority 2023, published 2026)
Square brackets hold non-standard residues; d marks the D form. Peptide text beside a SMILES is read from it. * marks the point of attachment. Dolaproine = CO[C@@H]([C@@H]1CCCN1)[C@@H](C)C(=O)O; Dil = CC[C@H](C)[C@H](NC)[C@@H](CC(=O)O)OC; X1 = CC(C)[C@@H](C(=O)*)N(C)CCOCCOCCOCCON; X2 = C[C@@H](N*)[C@@H](O)c1ccccc1; NMeV = CN[C@H](C(=O)O)C(C)C

Tests used:
MDR/P-gp [1] = molecular target: T1, MDR/P-gp (Homo sapiens, UniProt P08183); test: MDR pump substrate assessment; assay type: in vitro ADME; conditions: data not shown
BCRP = molecular target: T2, BCRP (Homo sapiens, UniProt Q9UNQ0); test: BCRP substrate assessment; assay type: in vitro ADME; conditions: data not shown
T2 sequence (Q9UNQ0 1-655): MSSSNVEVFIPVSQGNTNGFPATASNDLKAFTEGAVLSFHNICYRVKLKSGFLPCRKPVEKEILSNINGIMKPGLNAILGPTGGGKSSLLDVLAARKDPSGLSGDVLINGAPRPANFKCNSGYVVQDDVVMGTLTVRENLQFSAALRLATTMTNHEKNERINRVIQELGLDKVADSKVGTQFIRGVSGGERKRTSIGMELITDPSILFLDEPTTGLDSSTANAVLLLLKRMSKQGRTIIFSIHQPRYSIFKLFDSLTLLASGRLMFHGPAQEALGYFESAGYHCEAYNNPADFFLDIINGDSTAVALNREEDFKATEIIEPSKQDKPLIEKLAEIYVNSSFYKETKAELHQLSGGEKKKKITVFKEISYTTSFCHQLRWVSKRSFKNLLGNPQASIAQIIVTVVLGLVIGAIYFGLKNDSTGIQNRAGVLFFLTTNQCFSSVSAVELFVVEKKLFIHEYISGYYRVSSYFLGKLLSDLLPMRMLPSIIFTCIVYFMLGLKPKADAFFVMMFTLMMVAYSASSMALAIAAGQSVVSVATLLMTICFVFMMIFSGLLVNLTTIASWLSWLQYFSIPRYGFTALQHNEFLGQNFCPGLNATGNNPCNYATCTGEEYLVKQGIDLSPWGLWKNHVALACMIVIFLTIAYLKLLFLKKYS

MDR/P-gp [2] = molecular target: T1, MDR/P-gp; conditions: cited from earlier work
[3] = tested on: 786-OS3 renal carcinoma cells; test: 786-OS3/PBMC renal cell carcinoma xenograft model, ARX305 and pembrolizumab; assay type: in vivo, NCG mice; conditions: study day 36, 5.0 mg/kg dose of pembrolizumab alone, IP QW × 4
Description: ARX305 in combination with a checkpoint inhibitor, such as a PD-1/PD-L1 inhibitor, were tested in a renal cell carcinoma (RCC) model. For RCC, ARX305 in combination of pembrolizumab (PD-1 inhibitor) were evaluated in a cell line-derived xenograft tumor model: 786-OS3.
Female NCG mice were housed five (5) per cage in a pathogen-free, limited access room. Food and water were provided ad libitum. Mice were subcutaneously inoculated in the right flank with 5×10^6 786-OS3 renal carcinoma cells mixed with Matrigel. Tumor volumes were measured twice weekly. When tumors reached from about 175 mm^3 to about 200 mm^3 in size, mice were randomized into five (5) groups of 10 mice with approximately equal average tumor volumes. Cryopreserved peripheral blood mononuclear cells (PBMCs) from a single healthy donor were thawed and cultured in Roswell Park Memorial Institut (RPMI) medium+10% fetal bovine serum at 37° C. for 24 hours. PBMCs were harvested and intraperitoneally injected into tumor-bearing mice (10^7/mouse). After 24 hours, mice were injected with vehicle, pembrolizumab (5 mg/kg), ARX305 (0.3 mg/kg), or pembrolizumab (5 mg/kg)+ARX305 (0.3 mg/kg). Dosing was repeated for pembrolizumab weekly for a total of 4 doses and ARX305 every other week for a total of 2 doses. […] Tumor volumes were continually measured twice weekly and FIG. 15 show mean tumor volumes +/−SEM for each group.

cynomolgus CD70 protein [4] = molecular target: T3, cynomolgus CD70 protein (cynomolgus, UniProt A0A2K5WTU9 39-190); test: SPR (Biacore), ADC captured by anti-human IgG (Fc) on CM5 chip, CD70 as analyte, 1:1 fit
T3 construct: SPR analyte; construct not described
T3 sequence: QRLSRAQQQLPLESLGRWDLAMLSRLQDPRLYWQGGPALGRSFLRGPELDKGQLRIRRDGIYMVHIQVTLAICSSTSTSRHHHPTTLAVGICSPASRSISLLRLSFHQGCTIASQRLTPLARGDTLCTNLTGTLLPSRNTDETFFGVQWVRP
Description: (§1) Surface plasmon resonance assays were developed in which anti-human IgG (Fc) was diluted to 25 μg/mL in immobilization buffer ([…] Sodium Acetate, pH 5.0) and injected to an activated CM5 sensor chip for 360 seconds at a flow rate of 10 μL/minute. […] After each cycle of interaction analysis, the sensor chip surface was regenerated with 3M magnesium chloride at a flow rate of 20 uL/minute for 30 seconds. Affinity analysis was performed using Biacore Insight Evaluation software, reference channel was used for background subtraction, and a 1:1 binding method was used for curve fitting.

cynomolgus CD70 protein [5] = molecular target: T4, cynomolgus CD70 protein (cynomolgus, UniProt A0A2K5WTU9 39-190); test: SPR
T4 chain: T3 sequence

human CD70 protein = molecular target: T5, human CD70 protein (human, UniProt P32970 39-193); test: SPR
T5 chain: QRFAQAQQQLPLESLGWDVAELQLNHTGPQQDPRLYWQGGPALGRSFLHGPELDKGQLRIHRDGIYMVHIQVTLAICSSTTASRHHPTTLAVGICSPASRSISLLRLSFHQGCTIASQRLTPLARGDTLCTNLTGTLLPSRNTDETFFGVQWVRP

[6] = molecular target: T6, CD70 on the surface of human tumor cell lines (human, UniProt P32970 1-193); test: cell-based or functional assay
T6 sequence (looked up): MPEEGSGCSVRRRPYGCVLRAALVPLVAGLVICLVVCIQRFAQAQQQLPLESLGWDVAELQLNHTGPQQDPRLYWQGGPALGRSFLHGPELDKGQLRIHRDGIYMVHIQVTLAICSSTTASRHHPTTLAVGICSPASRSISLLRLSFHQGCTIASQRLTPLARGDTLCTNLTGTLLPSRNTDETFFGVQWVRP

mouse CD70 protein = molecular target: T7, mouse CD70 protein (mouse, UniProt O55237 45-195, limits assumed); test: SPR (Biacore), ADC captured by anti-human IgG (Fc) on CM5 chip, CD70 as analyte
T7 construct: SPR analyte; construct not described; also called rodent CD70
T7 sequence (looked up): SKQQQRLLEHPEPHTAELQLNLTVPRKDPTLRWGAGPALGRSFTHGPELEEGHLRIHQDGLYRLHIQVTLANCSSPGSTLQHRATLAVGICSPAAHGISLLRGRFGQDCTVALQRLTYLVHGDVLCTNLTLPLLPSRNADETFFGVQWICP
Description: as §1

T1 sequence (P08183 whole entry): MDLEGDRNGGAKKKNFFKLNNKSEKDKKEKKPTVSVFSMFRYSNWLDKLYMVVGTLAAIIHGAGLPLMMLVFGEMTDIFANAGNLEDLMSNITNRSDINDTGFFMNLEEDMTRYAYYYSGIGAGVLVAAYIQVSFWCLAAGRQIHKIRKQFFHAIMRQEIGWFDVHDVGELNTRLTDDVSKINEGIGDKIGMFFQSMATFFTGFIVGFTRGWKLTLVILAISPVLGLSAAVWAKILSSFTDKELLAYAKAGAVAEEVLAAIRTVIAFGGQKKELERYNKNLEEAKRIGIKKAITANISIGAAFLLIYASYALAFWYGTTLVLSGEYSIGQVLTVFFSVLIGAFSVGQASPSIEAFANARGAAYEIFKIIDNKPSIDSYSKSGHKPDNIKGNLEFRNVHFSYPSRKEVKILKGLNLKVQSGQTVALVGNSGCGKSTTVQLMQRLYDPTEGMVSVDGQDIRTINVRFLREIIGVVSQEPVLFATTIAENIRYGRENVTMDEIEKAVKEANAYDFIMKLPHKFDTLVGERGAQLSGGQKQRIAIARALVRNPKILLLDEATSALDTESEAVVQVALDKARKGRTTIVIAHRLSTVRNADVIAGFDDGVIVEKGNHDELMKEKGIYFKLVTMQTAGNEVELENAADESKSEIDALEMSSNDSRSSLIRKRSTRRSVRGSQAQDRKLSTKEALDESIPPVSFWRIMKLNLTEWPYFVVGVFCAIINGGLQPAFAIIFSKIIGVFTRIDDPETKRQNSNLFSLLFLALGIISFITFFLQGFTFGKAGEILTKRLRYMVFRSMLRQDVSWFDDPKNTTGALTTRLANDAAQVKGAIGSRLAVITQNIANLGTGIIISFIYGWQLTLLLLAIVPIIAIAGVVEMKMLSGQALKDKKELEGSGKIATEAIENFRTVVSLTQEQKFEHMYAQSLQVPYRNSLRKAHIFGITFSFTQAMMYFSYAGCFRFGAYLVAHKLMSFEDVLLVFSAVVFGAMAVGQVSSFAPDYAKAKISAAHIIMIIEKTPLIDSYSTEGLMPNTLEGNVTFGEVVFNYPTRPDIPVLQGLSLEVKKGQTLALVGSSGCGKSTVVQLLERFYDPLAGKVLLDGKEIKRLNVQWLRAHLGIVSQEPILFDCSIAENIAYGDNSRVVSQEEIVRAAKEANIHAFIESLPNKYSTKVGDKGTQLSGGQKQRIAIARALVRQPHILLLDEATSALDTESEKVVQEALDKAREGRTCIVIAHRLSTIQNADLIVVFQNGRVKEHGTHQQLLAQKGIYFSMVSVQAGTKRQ

Molecule: CC[C@H](C)[C@@H]([C@@H](CC(=O)N1CCC[C@H]1[C@H](OC)[C@@H](C)C(=O)N[C@@H](Cc1ccccc1)C(=O)O)OC)N(C)C(=O)[C@@H](NC(=O)[C@H](C(C)C)N(C)CCOCCOCCOCCON)C(C)C [AS269, ((2R,3R)-3-((S)-1-((3R,4S,5S)-4-((S)-2-((S)-14-(aminooxy)-2-isopropyl-3-methyl-6,9,12-trioxa-3-azatetradecanamido)-N,3-dimethylbutanamido)-3-methoxy-5-methylheptanoyl)pyrrolidin-2-yl)-3-methoxy-2-methylpropanoyl)-L-phenylalanine] (X1-V[Dil][Dolaproine]F-OH)
- substrate for MDR/P-gp (MDR/P-gp [1]): not a substrate
- substrate for BCRP (BCRP): not a substrate

Molecule: CC[C@H](C)[C@@H]([C@@H](CC(=O)N1CCC[C@H]1[C@H](OC)[C@@H](C)C(=O)N[C@H](C)[C@@H](O)c1ccccc1)OC)N(C)C(=O)[C@@H](NC(=O)[C@@H](NC)C(C)C)C(C)C [MMAE, Monomethyl auristatin E] (H-[NMeV]V[Dil][Dolaproine]-X2)
- substrate for MDR pumps (MDR/P-gp [2]): known substrate

Molecule: pembrolizumab: PD-1 inhibitor [reference compound]
- tumor growth inhibition (TGI) [3]: 6%

B1: anti-CD70-AS269 ADC (antibody, human IgG1, kappa, V domains shown)
VH: EVQLVQSGAEVKKPGATVKISCKVSGYTFTDYYMNWVQQAPGKGLEWMGIINPYNGGTHYNQKFKGRVTITADTSTDTAYMELSSLRSEDTAVYYCATSGYDLYFDYWGQGTLVTVSS
VL: EIVMTQSPATLSVSPGERATLSCKASQNVGTAVAWYQQKPGQAPRLLIYSAFNRYNGIPARFSGSGPGTDFTLTISSLQSEDFAVYYCQQYSTYPLTFGGGTKVEIKR
modifications: para-acetyl-L-phenylalanine (pAF) at position 114 (Kabat numbering; the X of SEQ ID NO: 3), carrying drug-linker AS269 via an oxime bond
notes: Antibody-drug conjugate: humanized IgG1 mAb with one AS269 drug-linker per heavy chain, DAR about 2; also called ARX305; aCD70-AS269
- fold difference of affinity between human and cynomolgus CD70 (cynomolgus CD70 protein [4]): ≤ 3 fold
- Kd (cynomolgus CD70 protein [5]): 0.684 nM
- Kd (human CD70 protein): 0.228 nM
- Cytotoxic Potency (IC50, nM), 786-O cells (CD70 surface expression 133,000) [6]: 0.167 nM
- Cytotoxic Potency (IC50, nM), C666-1 cells (CD70 surface expression 9,200) [6]: > 10 nM
- Cytotoxic Potency (IC50, nM), Caki-1 cells (CD70 surface expression 107,000) [6]: 0.125 nM
- Cytotoxic Potency (IC50, nM), Hs 611.T cells (CD70 surface expression 6,600) [6]: > 10 nM
- Cytotoxic Potency (IC50, nM), Hs766T cells (CD70 surface expression 9,500) [6]: > 10 nM
- Cytotoxic Potency (IC50, nM), KMS11 cells (CD70 surface expression 9,400) [6]: > 10 nM
- Cytotoxic Potency (IC50, nM), NCI-H40 cells (CD70 surface expression 14,900) [6]: 0.18 nM
- Cytotoxic Potency (IC50, nM), NCI-H929 cells (CD70 surface expression 0) [6]: > 10 nM
- Cytotoxic Potency (IC50, nM), REC-1 cells (CD70 surface expression 17,300) [6]: 0.18 nM
- Cytotoxic Potency (IC50, nM), Raji cells (CD70 surface expression 17,700) [6]: > 10 nM
- Cytotoxic Potency (IC50, nM), U251MG cells (CD70 surface expression 65,800) [6]: 0.04 nM
- Cytotoxic Potency (IC50, nM), U266 cells (CD70 surface expression 65,000) [6]: 0.025 nM
- binding result (mouse CD70 protein): no binding
